Results on five molecules are retold here after patent publication EP4748858A1 (Nanjing Probio Biotech Co., Ltd., dated 2026).

Sequences and labels used below:
T1: recombinant protein of the human CD7 extracellular domain, CD7-His (human, UniProt P09564 26-180)
T1 construct: range 25-645; also called human CD7-His protein; recombinant human CD7; not shown: His protein tag
T1 sequence (looked up): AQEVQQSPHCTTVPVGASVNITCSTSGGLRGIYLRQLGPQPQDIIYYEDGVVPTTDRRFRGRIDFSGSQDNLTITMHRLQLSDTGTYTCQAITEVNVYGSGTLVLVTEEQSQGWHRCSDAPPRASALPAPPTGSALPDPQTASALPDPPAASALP

T2: mouse CD7 (ACROBiosystems, CD7-M52H3) (mouse, UniProt P50283 24-150)
T2 construct: Bought recombinant protein; also called Mouse CD7 protein
T2 sequence (looked up): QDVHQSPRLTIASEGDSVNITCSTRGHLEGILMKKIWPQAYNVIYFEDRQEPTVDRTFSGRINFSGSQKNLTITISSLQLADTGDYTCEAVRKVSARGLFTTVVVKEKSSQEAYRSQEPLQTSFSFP

B1: AHP19485 (Fc fusion)
chain: EVQLVESGGGLVQPGGSLRLSCASSERIFSIHAMGWYRQAPGKQRELVASITIGGSTHYADSVKGRFTISRDNAKNTVYLHMNSLKPEDTAVYYCNSMLLAGTVGGSWGQGTQVTVSS
notes: Alpaca VHH expressed as fusion to human IgG1 Fc; also called AHP19485-VHH; not shown: human IgG1 Fc of expression vector pcDNA3.4-Fc (HuIgG1)
B2: AHP19509 (Fc fusion)
chain: QVKLEESGGGLVQAGGSLRLSCAASGGTFNRYTMGWFRQAPGKEREFVAAISWSGGSTDYADSVKGRFTISRDNTKNTVYLQMNSLKPEDAAVYYCDTDRMPYRPVAAGILSWEANWGQGTQVTVSS
notes: Alpaca VHH expressed as fusion to human IgG1 Fc; also called AHP19509-VHH; not shown: human IgG1 Fc of expression vector pcDNA3.4-Fc (HuIgG1)
B3: AHP19484 (Fc fusion)
chain: QVKLEESGGGLVQPGGSLRLSCVASGSSFHFAFMGWYRQAPGKQRELVADISPGNSTNYADPVKGRFVISRDNAKNTVYLQMNSLKPEDTAVYFCRDLRSWGAWGRGTQVTVSS
notes: Alpaca VHH expressed as fusion to human IgG1 Fc; also called AHP19484-VHH; not shown: human IgG1 Fc of expression vector pcDNA3.4-Fc (HuIgG1)
B4: AHP19494 (Fc fusion)
chain: QVKLEESGGGLVQAGGSLRLSCAAPGRTLSASIKAWFRQAPGKDREFAAAIRWSGDSTYYADSVKGRFTISRDNAKNTVDLQMNSLKPEDTAVYYCNAGGLLSNGYQPGSSWGQGTQVTVSS
notes: Alpaca VHH expressed as fusion to human IgG1 Fc; not shown: human IgG1 Fc of expression vector pcDNA3.4-Fc (HuIgG1)
B5: AHP19487 (Fc fusion)
chain: DVQLVESGGGLVQPGGSLRLSCAFPGSAFSFYFMGWYRQAPGKQRELVGDITPGGTANYADSVKGRFTISRDSAKNTVYLQMNSLKPEDTAVYYCNADRRVTIRPDGYWGQGTQVTVSS
notes: as for B4

The first test has as its target T1, recombinant protein of the human CD7 …. In words: SPR Biacore T200, antibody captured via Fc, human CD7 as analyte.
For B1, the Kd was 0.289 nM, the koff turned out to be 7.73e-05 s⁻¹ and the kon was 268000 M⁻¹ s⁻¹.
For B2, the dissociation constant Kd stood at 0.0765 nM, the koff turned out to be 2.3e-05 s⁻¹ and the kon came out at 301000 M⁻¹ s⁻¹.
Take B3: the dissociation constant (Kd) was 0.12 nM, the off-rate (koff) worked out at 6.03e-05 s⁻¹ and the on-rate constant (kon) is 502000 M⁻¹ s⁻¹.

The next test has the same target. In words: indirect ELISA, plate coated with 1 µg/ml human CD7, anti-human IgG Fc-HRP.
For B1, the EC50 stood at 0.168 nM.
Same read-out and setting: next, B4: 1.47 nM; B2: 0.209 nM.
Take B5: the EC50 is 0.173 nM.
On to B3, for which the concentration giving a half-maximal response (EC50) was 0.278 nM.

Another test deals with T3, monkey CD7 (Sino Biological, 90993-H08H) (monkey).
T3 construct: Bought recombinant protein; also called Monkey CD7 protein
In words: indirect ELISA, plate coated with 1 µg/ml monkey CD7, anti-human IgG Fc-HRP. Background: ELISA stands for enzyme-linked immunosorbent assay.
In turn, B3 had an EC50 of 7.03 nM.

The next test has as its target T2, mouse CD7 (ACROBiosystems, CD7-M52H3). In words: indirect ELISA, plate coated with 1 µg/ml mouse CD7.
With B1, the binding result is recorded as “no binding (tested: 8 µg/ml (about 100 nM))”.
The same measure, in the same setting: next, B4: “no binding (tested: 8 µg/ml (about 100 nM))”.
In the case of B2, the binding result is recorded as “no binding (tested: 8 µg/ml (about 100 nM))”.
In the case of B5, the binding result is “no binding (tested: 8 µg/ml (about 100 nM))”.
For B3, the binding result is reported as “no binding (tested: 8 µg/ml (about 100 nM))”.

Usually Kd stands for the free concentration of one partner at which half of the binding sites on the other are occupied at equilibrium, for simple one-to-one binding. The term koff denotes the first-order rate constant of dissociation. As usually defined, the kon is the second-order rate constant of association. Broadly, the EC50 is the concentration giving half of the maximal effect.
